Assay results as given in patent publication US20250281556A1, “PRODUCTION OF RNA POLYNUCLEOTIDES ENCODING PICORNAVIRUS” (priority 2022, published 2025).

B1: ENV27-V2: ENV27 ribozyme variant, DNA SEQ ID NO: 132, P2 motif TTTATT; tested with L1 leader sequence (nucleic acid)
DNA: ACTCGTTTGAGCGAGTATAAACAGTTTATTAGGCTCAAAGCGGAGAGCAGATCTGCTCTCG
modifications: expressed or natural sequence
B2: ENV27-V3: ENV27 ribozyme variant, DNA SEQ ID NO: 133, TTTATT and GAAA inserted into P3 stem insert (nucleic acid)
DNA: ACTCGTTTGAGCGAGTATAAACAGTTTATTAGGCTCAAAGCGGAGAGCAGAGAAATCTGCTCTCG
modifications: expressed or natural sequence
B3: ENV27-V4: ENV27 ribozyme variant, DNA SEQ ID NO: 134, TTTATT and ACGAGAAATCGT inserted into P3 stem insert (nucleic acid)
DNA: ACTCGTTTGAGCGAGTATAAACAGTTTATTAGGCTCAAAGCGGAGAGCAGAACGAGAAATCGTTCTGCTCTCG
modifications: expressed or natural sequence
B4: ENT27-WT: ENV27 ribozyme, corresponding DNA sequence SEQ ID NO: 130, P2 motif TTGGTT (nucleic acid)
DNA: ACTCGTTTGAGCGAGTATAAACAGTTGGTTAGGCTCAAAGCGGAGAGCAGATCTGCTCTCGTCCAA
modifications: further chemistry not given here

Legend:
[1] = test system: full-length CVA21 viral genome RNA; experiment: Ribozyme cleavage efficiency in the full-length CVA21 viral genome expression construct; assay type: biochemical; settings: L1 leader sequence, RT-dPCR and RNA digest methods, vs control vector CVA21v1
Protocol: (§1) Experiments were performed to optimize the ribozyme sequence at the 5′ junctional cleavage sequence region of the in vitro transcription template for CVA21 viral genome based on the test construct design according to FIG. 10B. Initially, a short, about 60 nt segment(S) of the 5′-end of the viral genome (“virus start”) was used to identify ribozymes that yielded high cleavage efficiency. […] Specifically, for an initial candidate ribozyme that yielded >90% cleavage efficiency in the test construct with short ˜60 nt virus start, it yielded only about 10-35% cleavage efficiency upon incorporation of the expression construct for the full-length viral genome. […] Thus, the test construct was redesigned to include a longer, about 260 nt segment (L) of the 5′-end of the viral genome sequence. […] Therefore, the test construct “L” with longer virus start better recapitulates the cleavage efficiency of the candidate ribozyme when incorporated into the full-length viral genome.
ENV27-V2 ribozyme and L1 leader sequence was then incorporated into the CVA21 viral genome expression construct and tested for cleavage efficiency using both RT-dPCR and RNA digest methods.

[2] = test system: ~260 nt segment of the 5′-end of the viral genome sequence (virus start); experiment: Ribozyme cleavage efficiency, test construct with longer ~260 nt virus start; assay type: biochemical, CVA21; settings: gel electrophoresis
Protocol: as §1
Further optimization was performed in the DNA template encoding ENT27 ribozyme, including: • Replacing the P2 motif “TTGGTT” of ENT27-WT with “TTTGTT” (ENT27-V1) or “TTTATT” (ENT27-V2, ENT27-V3, ENT27-V4) to complement the 5′ end of the viral start “UUAAA” after ribozyme cleavage. • Inserting additional nucleotides “GAAA” (ENT27-V3) or “ACGAGAAATCGT” (ENT27-V4) into the P3 stem insert of the ENT27 ribozyme. These optimizations are illustrated in FIG. 11A and FIG. 11B.
The cleavage efficiencies of these optimized ENT27 ribyzomes were analyzed using the test constructs with longer ˜260 nt virus start. The leader sequence used in these constructs include L1 (SEQ ID NO: 135) and L2 (SEQ ID NO: 136).

Molecule	cleavage efficiency [1]	cleavage efficiency [2]
B1	> 90%	much better cleavage efficiency
B2	–	improved the cleavage efficiency
B3	–	improved the cleavage efficiency
B4	–	promising candidate
